No end group written: not given here. FI = 5(6)-carboxyfluorescein
Columns and labels:
Assay in all cases: cell-based or functional assay
[1] = target: M2^C-Trx-H6 (AceL-TerL Int^C mutant M2: S38G, N46I, N54D, L55Q) [thioredoxin: P0AA25]
[2] = target: M1^C-Trx-H6 (AceL-TerL Int^C mutant M1: N46D, L55Q) [thioredoxin: P0AA25]
[3] = target: MBP-Int^C-TycB1 with the AceL-TerL MX1 mutant (M1^C)
Sequence of MBP-Int^C-TycB1 with the AceL-TerL MX1 mutant (M1^C) (main, as listed by the source, change not shown): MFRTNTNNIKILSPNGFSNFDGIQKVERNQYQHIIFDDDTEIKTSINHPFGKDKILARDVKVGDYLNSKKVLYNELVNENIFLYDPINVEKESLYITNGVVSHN

Sequence of M2^C-Trx-H6 (AceL-TerL Int^C mutant M2: S38G, N46I, N54D, L55Q) [thioredoxin: P0AA25] (P0AA25 other isoform, or with tags, fused parts or gaps S38G N46I N54D L55Q S38G N46I N54D L55Q): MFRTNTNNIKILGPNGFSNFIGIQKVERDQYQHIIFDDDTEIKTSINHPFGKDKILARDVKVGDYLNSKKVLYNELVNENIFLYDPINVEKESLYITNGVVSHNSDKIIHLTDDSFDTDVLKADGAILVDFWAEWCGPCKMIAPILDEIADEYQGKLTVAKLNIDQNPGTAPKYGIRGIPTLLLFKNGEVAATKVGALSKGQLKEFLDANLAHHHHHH
Sequence of M1^C-Trx-H6 (AceL-TerL Int^C mutant M1: N46D, L55Q) [thioredoxin: P0AA25] (P0AA25 other isoform, or with tags, fused parts or gaps N46D L55Q N46D L55Q): as the sequence (P0AA25 other isoform, or with tags, fused parts or gaps S38G N46I N54D L55Q S38G N46I N54D L55Q) above, with G13S, I21D, D29N counted along it

| splicing rate at 37° C. against the wild-type [1] [fold faster] | splicing rate at 37° C. against the wild-type [2] [fold faster] | splicing rate at 8° C. against the M86 DnaB mutant intein [3] [fold higher] | splicing rate at 8° C. against the unevolved wild-type AceL-TerL intein [3] [fold higher] | splicing yield at 8° C. [3] [%] | Binder |
| --- | --- | --- | --- | --- | --- |
| 56 | 29 | – | – | – | {FI}-KKEFECVSGDTMVETEDGKIKIEDLYKRLA [pepM3^N (FI-KKEFE-IntN with the M3 Int^N, Y3S)] |
| – | – | 13 | 15 | 80 to 95 | {FI}-KKEFECVYGDTMVETEDGKIKIEDLYKRLA [pepWT^N (FI-KKEFE-IntN), synthetic peptide with the Int^N of the AceL-TerL intein] |
